# Test results taken from patent US20260242419A1, “A CYCLIC PEPTIDE FOR TRAPPING INTERLEUKIN-1 BETA” (Merck Sharp & Dohme LLC, priority 2023, published 2026).
# Starred links: 1 amine or outer side, 2 acyl side, 3 side chain; linkers in the order of their positions; H or OH if unused. Non-standard residues stand in square brackets, D forms with d. No end group written: not given here. Phe(4-(5-CO2H-2-pyrimidyl)) = N[C@@H](Cc1ccc(-c2ncc(C(=O)O)cn2)cc1)C(=O)O; Phe(4-(4-Ac-piperazinyl)) = CC(=O)N1CCN(c2ccc(C[C@H](N)C(=O)O)cc2)CC1; dPro(4R-(4-pyridylmethyl)) = O=C(O)[C@H]1C[C@@H](Cc2ccncc2)CN1; Ala(piperidin-4-yl) = O=C([C@H](CC1CCN([*:3])CC1)N[*:1])[*:2]; Trp(βS-Me,4-F) = C[C@@H](c1c[nH]c2cccc(F)c12)[C@H](N)C(=O)O; Bip(4'-COOH) = N[C@@H](Cc1ccc(-c2ccc(C(=O)O)cc2)cc1)C(=O)O; Ala(1-bicyclo(1.1.1)pentyl) = N[C@@H](CC12CC(C1)C2)C(=O)O; dPro(4R-Bzl(4-F)) = O=C(O)[C@H]1C[C@@H](Cc2ccc(F)cc2)CN1; Ala(morpholin-4-yl) = N[C@@H](CN1CCOCC1)C(=O)O; Ala(piperazin-1-yl) = N[C@@H](CN1CCNCC1)C(=O)O; Ala(pyrimidin-5-yl) = N[C@@H](Cc1cncnc1)C(=O)O; Phe(4-COOH) = N[C@@H](Cc1ccc(C(=O)O)cc1)C(=O)O; Pro(cis-4-F) = O=C(O)[C@@H]1C[C@H](F)CN1; cisHyp = O=C(O)[C@@H]1C[C@H](O)CN1; d(αMeD) = C[C@@](N)(CC(=O)O)C(=O)O; 4Pal = N[C@@H](Cc1ccncc1)C(=O)O; aThr = C[C@H](O)[C@H](N)C(=O)O; αMeD = C[C@](N)(CC(=O)O)C(=O)O; d(αMeS) = C[C@@](N)(CO)C(=O)O; αMeK = C[C@](N)(CCCCN)C(=O)O; Dab = NCC[C@H](N)C(=O)O; Aib = CC(C)(N)C(=O)O
# B1: SEQ ID NO: 174 (peptide)
# peptide: cyclo([Bip(4'-COOH)][Ala(1-bicyclo(1.1.1)pentyl)][Phe(4-COOH)]G[Pro(cis-4-F)][Trp(βS-Me,4-F)][Aib]SW[αMeK][Ala(morpholin-4-yl)]Q[Dab]G[dPro(4R-Bzl(4-F))])
# modifications: ring closure inferred; not fully specified (bridges); printed as Bip4CO2H-AlaPent-Phe4COOH-G-Proc4F-SbMeW4F-Aib-S-W-aMeK-AlaMph-Q-Dab-G-dProc4Bn4F, cyclic (macrolactam)
# B2: SEQ ID NO: 179 (peptide)
# peptide: [Bip(4'-COOH)][Ala(1-bicyclo(1.1.1)pentyl)][Phe(4-COOH)]G[Pro(cis-4-F)][Trp(βS-Me,4-F)][Aib]SW[Aib][Ala(morpholin-4-yl)]QSG[dPro(4R-(4-pyridylmethyl))]
# modifications: lactam (positions not given here); also: macrolactam ring, closure sites not given here
# B3: SEQ ID NO: 170 (peptide)
# peptide: cyclo([Bip(4'-COOH)][Ala(1-bicyclo(1.1.1)pentyl)][Phe(4-COOH)]G[Pro(cis-4-F)][Trp(βS-Me,4-F)][Aib]SW[d(αMeS)][Ala(morpholin-4-yl)]Q[Dab]G[dPro(4R-Bzl(4-F))])
# modifications: ring closure inferred
# B4: SEQ ID NO: 181 (peptide)
# peptide: [Bip(4'-COOH)][Ala(1-bicyclo(1.1.1)pentyl)][Phe(4-COOH)]G[Pro(cis-4-F)][Trp(βS-Me,4-F)][Aib]SW[d(αMeS)][Ala(piperidin-4-yl)]QSG[dPro(4R-(4-pyridylmethyl))]
# modifications: lactam (positions not given here); also: macrolactam ring, closure sites not given here
# B5: SEQ ID NO: 187 (peptide)
# peptide: [Phe(4-(5-CO2H-2-pyrimidyl))][4Pal][Phe(4-COOH)]G[Pro(cis-4-F)][Trp(βS-Me,4-F)][Aib]SW[αMeD][Ala(pyrimidin-5-yl)]Q[Dab]G[dPro(4R-(4-pyridylmethyl))]
# modifications: lactam (positions not given here); also: macrolactam ring, closure sites not given here
# B6: SEQ ID NO: 182 (peptide)
# peptide: [Bip(4'-COOH)][Ala(1-bicyclo(1.1.1)pentyl)][Phe(4-COOH)]G[cisHyp][Trp(βS-Me,4-F)][Aib][aThr]W[d(αMeD)][Ala(pyrimidin-5-yl)]Q[Dab]G[dPro(4R-(4-pyridylmethyl))]
# modifications: lactam (positions not given here); also: macrolactam ring, closure sites not given here
# B7: SEQ ID NO: 173 (peptide)
# peptide: cyclo([Bip(4'-COOH)][Ala(1-bicyclo(1.1.1)pentyl)][Phe(4-COOH)]G[Pro(cis-4-F)][Trp(βS-Me,4-F)][Aib]SW[αMeK][Ala(morpholin-4-yl)]QSG[dPro(4R-Bzl(4-F))])
# modifications: ring closure inferred; not fully specified (bridges); printed as Bip4CO2H-AlaPent-Phe4COOH-G-Proc4F-SbMeW4F-Aib-S-W-aMeK-AlaMph-Q-S-G-dProc4Bn4F, cyclic (macrolactam)
# B8: SEQ ID NO: 176 (peptide)
# peptide: cyclo([Bip(4'-COOH)][Ala(1-bicyclo(1.1.1)pentyl)][Phe(4-COOH)]G[Pro(cis-4-F)][Trp(βS-Me,4-F)][Aib]EW[Aib][Ala(piperidin-4-yl)]QSG[dPro(4R-(4-pyridylmethyl))])
# modifications: ring closure inferred; not fully specified (bridges); printed as Bip4CO2H-AlaPent-Phe4COOH-G-Proc4F-SbMeW4F-Aib-E-W-Aib-AlaPip4-Q-S-G-dProc4CH24Pal, cyclic (macrolactam)
# B9: SEQ ID NO: 175 (peptide)
# peptide: cyclo([Bip(4'-COOH)][Ala(1-bicyclo(1.1.1)pentyl)][Phe(4-COOH)]G[Pro(cis-4-F)][Trp(βS-Me,4-F)][Aib]SW[αMeK][Ala(piperazin-1-yl)]QSG[dPro(4R-Bzl(4-F))])
# modifications: ring closure inferred; not fully specified (bridges); printed as Bip4CO2H-AlaPent-Phe4COOH-G-Proc4F-SbMeW4F-Aib-S-W-aMeK-AlaPiperaz-Q-S-G-dProc4Bn4F, cyclic (macrolactam)
# B10: SEQ ID NO: 180 (peptide)
# peptide: [Bip(4'-COOH)][Ala(1-bicyclo(1.1.1)pentyl)][Phe(4-COOH)]G[Pro(cis-4-F)][Trp(βS-Me,4-F)][Aib]SW[Aib][Ala(piperidin-4-yl)]QSG[dPro(4R-(4-pyridylmethyl))]
# modifications: lactam (positions not given here); also: macrolactam ring, closure sites not given here
# B11: SEQ ID NO: 171 (peptide)
# peptide: cyclo([Bip(4'-COOH)][Ala(1-bicyclo(1.1.1)pentyl)][Phe(4-COOH)]G[Pro(cis-4-F)][Trp(βS-Me,4-F)][Aib]SW[d(αMeS)][Ala(piperazin-1-yl)]Q[Dab]G[dPro(4R-Bzl(4-F))])
# modifications: ring closure inferred
# B12: SEQ ID NO: 184 (peptide)
# peptide: [Phe(4-(4-Ac-piperazinyl))][4Pal][Phe(4-COOH)]G[Pro(cis-4-F)][Trp(βS-Me,4-F)][Aib]SW[αMeD][Ala(pyrimidin-5-yl)]Q[Dab]G[dPro(4R-Bzl(4-F))]
# modifications: lactam (positions not given here); also: macrolactam ring, closure sites not given here
# B13: SEQ ID NO: 185 (peptide)
# peptide: [Phe(4-(5-CO2H-2-pyrimidyl))][Ala(1-bicyclo(1.1.1)pentyl)][Phe(4-COOH)]G[cisHyp][Trp(βS-Me,4-F)][Aib]SW[Aib][Ala(pyrimidin-5-yl)]Q[Dab]G[dPro(4R-(4-pyridylmethyl))]
# modifications: lactam (positions not given here); also: macrolactam ring, closure sites not given here
# B14: SEQ ID NO: 177 (peptide)
# peptide: cyclo([Bip(4'-COOH)][Ala(1-bicyclo(1.1.1)pentyl)][Phe(4-COOH)]G[Pro(cis-4-F)][Trp(βS-Me,4-F)][Aib]EW[d(αMeS)][Ala(morpholin-4-yl)]QSG[dPro(4R-(4-pyridylmethyl))])
# modifications: ring closure inferred; not fully specified (bridges); printed as Bip4CO2H-AlaPent-Phe4COOH-G-Proc4F-SbMeW4F-Aib-E-W-daMeS-AlaMph-Q-S-G-dProc4CH24Pal, cyclic (macrolactam)
# B15: SEQ ID NO: 168 (peptide)
# peptide: cyclo([Bip(4'-COOH)][Ala(1-bicyclo(1.1.1)pentyl)][Phe(4-COOH)]G[Pro(cis-4-F)][Trp(βS-Me,4-F)][Aib]SW[Aib][Ala(piperazin-1-yl)]Q[Dab]G[dPro(4R-Bzl(4-F))])
# modifications: ring closure inferred
# B16: SEQ ID NO: 183 (peptide)
# peptide: [Phe(4-(4-Ac-piperazinyl))][4Pal][Phe(4-COOH)]G[Pro(cis-4-F)][Trp(βS-Me,4-F)][Aib]SW[Aib][Ala(pyrimidin-5-yl)]Q[Dab]G[dPro(4R-Bzl(4-F))]
# modifications: lactam (positions not given here); also: macrolactam ring, closure sites not given here
# B17: SEQ ID NO: 178 (peptide)
# peptide: cyclo([Bip(4'-COOH)][Ala(1-bicyclo(1.1.1)pentyl)][Phe(4-COOH)]G[Pro(cis-4-F)][Trp(βS-Me,4-F)][Aib]EW[d(αMeS)][Ala(piperidin-4-yl)]QSG[dPro(4R-(4-pyridylmethyl))])
# modifications: ring closure inferred; not fully specified (bridges); printed as Bip4CO2H-AlaPent-Phe4COOH-G-Proc4F-SbMeW4F-Aib-E-W-daMeS-AlaPip4-Q-S-G-dProc4CH24Pal, cyclic (macrolactam)
# B18: SEQ ID NO: 172 (peptide)
# peptide: cyclo([Bip(4'-COOH)][Ala(1-bicyclo(1.1.1)pentyl)][Phe(4-COOH)]G[Pro(cis-4-F)][Trp(βS-Me,4-F)][Aib]SW[d(αMeS)][Ala(piperidin-4-yl)]Q[Dab]G[dPro(4R-Bzl(4-F))])
# modifications: ring closure inferred; not fully specified (bridges); printed as Bip4CO2H-AlaPent-Phe4COOH-G-Proc4F-SbMeW4F-Aib-S-W-daMeS-AlaPip4-Q-Dab-G-dProc4Bn4F, cyclic (macrolactam)
# B19: SEQ ID NO: 186 (peptide)
# peptide: [Phe(4-(5-CO2H-2-pyrimidyl))][4Pal][Phe(4-COOH)]G[Pro(cis-4-F)][Trp(βS-Me,4-F)][Aib]SW[Aib][Ala(pyrimidin-5-yl)]Q[Dab]G[dPro(4R-(4-pyridylmethyl))]
# modifications: lactam (positions not given here); also: macrolactam ring, closure sites not given here
# B20: SEQ ID NO: 169 (peptide)
# peptide: cyclo([Bip(4'-COOH)][Ala(1-bicyclo(1.1.1)pentyl)][Phe(4-COOH)]G[Pro(cis-4-F)][Trp(βS-Me,4-F)][Aib]SW[Aib][Ala(piperidin-4-yl)]Q[Dab]G[dPro(4R-Bzl(4-F))])
# modifications: ring closure inferred
# Biological target: Recombinant human IL-1β (BioLegend 579404) (human, UniProt P01584 117-269)
# Test: cell-based or functional assay
row,MRC5 IC50,Binder
1,0.025 nM,B1
2,0.029 nM,B2
3,0.015 nM,B3
4,0.021 nM,B4
5,0.015 nM,B5
6,0.049 nM,B6
7,0.037 nM,B7
8,0.036 nM,B8
9,0.037 nM,B9
10,0.027 nM,B10
11,0.016 nM,B11
12,0.014 nM,B12
13,0.043 nM,B13
14,0.031 nM,B14
15,0.018 nM,B15
16,0.025 nM,B16
17,0.041 nM,B17
18,0.016 nM,B18
19,0.015 nM,B19
20,0.019 nM,B20
